One data set addresses T1, NT2-REP4-CT.
T1 construct: Stood in the assay as a solid fiber; also called NTNT-REP-CT; HisNTNT4RepCT
T1 chain: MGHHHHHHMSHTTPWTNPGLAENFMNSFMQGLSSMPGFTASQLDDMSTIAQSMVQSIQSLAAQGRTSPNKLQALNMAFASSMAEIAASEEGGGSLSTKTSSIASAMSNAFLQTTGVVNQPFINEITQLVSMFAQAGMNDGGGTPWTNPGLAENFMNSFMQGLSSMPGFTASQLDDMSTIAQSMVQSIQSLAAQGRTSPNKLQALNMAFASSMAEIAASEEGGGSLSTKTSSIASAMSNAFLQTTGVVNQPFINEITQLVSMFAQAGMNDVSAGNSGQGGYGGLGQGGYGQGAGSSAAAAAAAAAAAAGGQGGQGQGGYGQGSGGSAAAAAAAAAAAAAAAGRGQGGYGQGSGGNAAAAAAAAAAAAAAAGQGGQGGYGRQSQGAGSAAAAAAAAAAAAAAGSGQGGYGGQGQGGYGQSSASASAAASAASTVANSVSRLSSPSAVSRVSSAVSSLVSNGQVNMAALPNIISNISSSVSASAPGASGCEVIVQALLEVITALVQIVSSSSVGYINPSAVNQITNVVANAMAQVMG
The data set can be described thus: capture of soluble protein on fibers at pH 6, release at pH 7, SDS-PAGE; 300 mM NaCl decreased capture at pH 6. The method, then:
(§1) Fibers (˜0.5 cm long, ˜50 ug) of NT-REP₄-CT (SEQ ID NO 20), NT₂-REP₄-CT (SEQ ID NO 23) and REP₄-CT (SEQ ID NO 2, control) were submerged in 100 μl solution of 5 mg/ml soluble NTHis (SEQ ID NO 30) or NT₂-Brichos (SEQ ID NO 32) at pH 8 for 10 minutes. The pH was decreased by addition of 400 ul sodium phosphate buffer (NaP) to pH 6 and incubated for 10 minutes to allow assembly of soluble NT to the fiber. The fibers were transferred to 500 μl of NaP at pH 6, and washed twice. Finally, the fibers were transferred to 500 μl of NaP at pH 7, and incubated 10 minutes to allow release of soluble NT. The same was done in the presence of 300 mM NaCl in all pH 6 NaP buffers. Samples from the different solutions were analysed on SDS-PAGE.

Another data set deals with T2, NT-REP4-CT.
T2 construct: Stood in the assay as a solid fiber (about 0.5 cm, about 50 ug) or as a cast film; also called NT4RepCT
T2 chain: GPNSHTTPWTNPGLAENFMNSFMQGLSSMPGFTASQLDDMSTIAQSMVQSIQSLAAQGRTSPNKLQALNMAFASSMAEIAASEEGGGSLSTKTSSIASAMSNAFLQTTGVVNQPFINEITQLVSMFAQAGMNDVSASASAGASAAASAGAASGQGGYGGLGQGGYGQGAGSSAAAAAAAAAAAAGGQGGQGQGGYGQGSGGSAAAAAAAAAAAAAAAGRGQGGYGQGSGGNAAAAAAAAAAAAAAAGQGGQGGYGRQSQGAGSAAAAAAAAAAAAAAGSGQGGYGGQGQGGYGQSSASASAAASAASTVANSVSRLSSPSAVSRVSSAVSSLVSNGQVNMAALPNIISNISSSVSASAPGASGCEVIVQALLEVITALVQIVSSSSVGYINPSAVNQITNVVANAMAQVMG
The description is as above. The method, then:
as §1

Data set [1] deals with the molecule itself. Kind of data set: self-association; dynamic light scattering and turbidimetry; reversed by an increase of pH, blocked by high levels of salt. The method, then:
The effect of pH and ionic strength on the hydrodynamic diameter of NT and NTΔHis6 (to exclude that pH dependent effects are caused by His at position 6) was measured at 25±0.1° C. in a Zetasizer Nano S from Malvern Instruments (Worcestershire, UK) equipped with a 633 nm HeNe laser. The buffers were filtered through nylon filters prior to use. The sample volume was 50 μl and ZEN2112 low glass cuvettes were used. The attenuation and measurement positions from the cuvette wall (4.65 mm) were kept constant for all analyses. Six scans were performed for each sample. All samples were analyzed in triplicate. The hydrodynamic diameter (dH) was calculated using the General Purpose algorithm in the Malvern software for DLS analysis, which correlates the diffusion coefficient to the hydrodynamic diameter through the Stokes-Einstein equation: […]
NT was subjected to dynamic light scattering at pH 6-7 and 0-300 mM NaCl. See also Table 3

Data set [2] concerns the molecule itself. The data set can be described thus: self-polymerisation at pH 6.
Data set [3] concerns the molecule itself. Kind of data set: self-polymerisation at pH 6; macroscopic formation, SEM and turbidimetry.
Data set [4] deals with the molecule itself. The data set can be described thus: self-polymerisation at pH 6; macroscopic formation and SEM. How it is done: Conditions for fiber formation were essentially as described in Stark, M. et al. Biomacromolecules 8, 1695-1701, (2007). Approximately 25 μM of each protein was incubated in 20 mM Na phosphate buffer at pH 7 or 6, with or without 300 mM NaCl. At different time points, samples were applied on SEM stubs, where they were air-dried and vacuum-coated with gold and palladium. The samples were photographed with a LEO 1550 FEG microscope (Carl Zeiss, Oberkochen, Germany) using an acceleration voltage of 5 kV.
The arrows in FIG. 3 indicate when macroscopic formations first were detected, showing that at pH 7 the presence of NT delays polymerisation, while at pH 6 it accelerates polymerisation. This is independent of whether the C-terminal fragment (filled circle) is present or not (indicated by the striped circle). Moreover, the presence of NT results in more ordered polymerisation, exemplified by the scanning electron micrographs in FIG. 3, which are representative early polymers for all constructs at pH 7 (above time scale) or for NT4RepCT at pH 6 (below time scale).

B1: NTHis (other)
chain: MSHTTPWTNPGLAENFMNSFMQGLSSMPGFTASQLDDMSTIAQSMVQSIQSLAAQGRTSPNKLQALNMAFASSMAEIAASEEGGGSLSTKTSSIASAMSNAFLQTTGVVNQPFINEITQLVSMFAQAGMNDVSASASAGASAAASAGAAALEHHHHHH
notes: Soluble protein, used at 5 mg/ml; also called NT as an N-terminal fusion to His6; soluble NT
On to B1, for which the binding result in the data set with NT2-REP4-CT and with NT-REP4-CT was “binds” in each case.

B2: NT2-Brichos (other)
chain: MGHHHHHHMSHTTPWTNPGLAENFMNSFMQGLSSMPGFTASQLDDMSTIAQSMVQSIQSLAAQGRTSPNKLQALNMAFASSMAEIAASEEGGGSLSTKTSSIASAMSNAFLQTTGVVNQPFINEITQLVSMFAQAGMNDGGGTPWTNPGLAENFMNSFMQGLSSMPGFTASQLDDMSTIAQSMVQSIQSLAAQGRTSPNKLQALNMAFASSMAEIAASEEGGGSLSTKTSSIASAMSNAFLQTTGVVNQPFINEITQLVSMFAQAGMNDVSAGNSEHLVTTATFSIGSTGLVVYDYQQLLIAYKPAPGTCCYIMKIAPESIPSLEALTRKVHNFQMECSLQAKPAVPTSKLGQAEGRDAGSAPSGGDPAFLGMAVSTLCGEVPLYYI
notes: Soluble fusion protein with His6, used at 5 mg/ml; also called NT-NT-Brichos; NTNTBrichos
For the molecule B2, the binding result in the data set with NT2-REP4-CT and with NT-REP4-CT was “binds” each time.

B3: NT, N-terminal fragment of major ampullate spidroin (MaSp) 1 from Euprosthenops australis (other)
chain: GSGNSHTTPWTNPGLAENFMNSFMQGLSSMPGFTASQLDDMSTIAQSMVQSIQSLAAQGRTSPNKLQALNMAFASSMAEIAASEEGGGSLSTKTSSIASAMSNAFLQTTGVVNQPFINEITQLVSMFAQAGMNDVSA
notes: Expressed as a C-terminal fusion to His6TrxHis6 and released by thrombin
Consider B3, for which the binding result in data set [1] was “binds”.

B4: NT5Rep (other)
chain: GSGNSHTTPWTNPGLAENFMNSFMQGLSSMPGFTASQLDDMSTIAQSMVQSIQSLAAQGRTSPNKLQALNMAFASSMAEIAASEEGGGSLSTKTSSIASAMSNAFLQTTGVVNQPFINEITQLVSMFAQAGMNDVSASASAGASAAASAGAPGYSPAPSYSSGGYASSAASAAAAAGQGGPGGYGPAPNQGASSAAAAAAGSGQGPSGPYGTSYQISTQYTQTTTSQGQGYGSSSAGAAAAGAAGAGQGGYGGQGQGGYGQGAGGAAAAAAAAAAAAAAAGQGGQGGGGYGQGGQGGQGGQGQGGYGQGAGSSAAAAAAAAAAAAAAGRGQGGYGPGSGG
notes: Non-natural minispidroin derived from Euprosthenops australis MaSp1; Released from His6TrxHis6 by thrombin
As to B4, the binding result in data set [2] was “binds”.

B5: NT4Rep (other)
chain: GSGNSHTTPWTNPGLAENFMNSFMQGLSSMPGFTASQLDDMSTIAQSMVQSIQSLAAQGRTSPNKLQALNMAFASSMAEIAASEEGGGSLSTKTSSIASAMSNAFLQTTGVVNQPFINEITQLVSMFAQAGMNDVSASASAGASAAASAGAASGQGGYGGLGQGGYGQGAGSSAAAAAAAAAAAAGGQGGQGQGGYGQGSGGSAAAAAAAAAAAAAAAGRGQGGYGQGSGGNAAAAAAAAAAAAAAAGQGGQGGYGRQSQGAGSAAAAAAAAAAAAAAGSGQGGYGGQGQGGYGQS
notes: as for B4
For the molecule B5, the binding result in data set [3] is listed as “binds”.

B6: NT4RepCT (as an N-terminal fusion to His6) (other)
chain: MKASHTTPWTNPGLAENFMNSFMQGLSSMPGFTASQLDDMSTIAQSMVQSIQSLAAQGRTSPNKLQALNMAFASSMAEIAASEEGGGSLSTKTSSIASAMSNAFLQTTGVVNQPFINEITQLVSMFAQAGMNDVSASASAGASAAASAGAASGQGGYGGLGQGGYGQGAGSSAAAAAAAAAAAAGGQGGQGQGGYGQGSGGSAAAAAAAAAAAAAAAGRGQGGYGQGSGGNAAAAAAAAAAAAAAAGQGGQGGYGRQSQGAGSAAAAAAAAAAAAAAGSGQGGYGGQGQGGYGQSSASASAAASAASTVANSVSRLSSPSAVSRVSSAVSSLVSNGQVNMAALPNIISNISSSVSASAPGASGCEVIVQALLEVITALVQIVSSSSVGYINPSAVNQITNVVANAMAQVMGKLAAALEHHHHHH
notes: also called NT4RepCTHis
On to B6, for which, in data set [4], the binding result is listed as “binds”.
